Laboratory results reported in patent US20110311550A1 (Scripps Research, published 2011).

Assays:
Experiment in all cases: ELISA, lectin-captured E1E2 lysate, Ab 1 ug/ml;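 further: E1E2 captured on Galanthus nivalis lectin-coated plates, bound test antibody read out by an HRP-linked secondary antibody and TMB colour development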
[1] = molecular target: E1E2 complex (H77) with E1 mutation T204A (HCV genotype 1a, isolate H77, UniProt P27958 192-383; P27958 384-746)
[2] = molecular target: E1E2 complex (H77) with E1 mutation V227A (HCV genotype 1a, isolate H77, UniProt P27958 192-383; P27958 384-746)
[3] = molecular target: E1E2 complex (H77) with E1 mutation D346A (HCV genotype 1a, isolate H77, UniProt P27958 192-383; P27958 384-746)
[4] = molecular target: E1E2 complex (H77) with E1 mutation R296A (HCV genotype 1a, isolate H77, UniProt P27958 192-383; P27958 384-746)
[5] = molecular target: E1E2 complex (H77) with E1 mutation Y192A (HCV genotype 1a, isolate H77, UniProt P27958 193-383; P27958 384-746)
[6] = molecular target: E1E2 complex (H77) with E1 mutation G225A (HCV genotype 1a, isolate H77, UniProt P27958 192-383; P27958 384-746)
[7] = molecular target: E1E2 complex (H77) with E1 mutation Q289A (HCV genotype 1a, isolate H77, UniProt P27958 192-383; P27958 384-746)
[8] = molecular target: E1E2 complex (H77) with E1 mutation M324A (HCV genotype 1a, isolate H77, UniProt P27958 192-383; P27958 384-746)
[9] = molecular target: E1E2 complex (H77) with E1 mutation N196A/N325A (HCV genotype 1a, isolate H77, UniProt P27958 192-383; P27958 384-746)
[10] = molecular target: E1E2 complex (H77) with E1 mutation R339A (HCV genotype 1a, isolate H77, UniProt P27958 192-383; P27958 384-746)
[11] = molecular target: E1E2 complex (H77) with E1 mutation V266A (HCV genotype 1a, isolate H77, UniProt P27958 192-383; P27958 384-746)
[12] = molecular target: E1E2 complex (H77) with E1 mutation A269G (HCV genotype 1a, isolate H77, UniProt P27958 192-383; P27958 384-746)
[13] = molecular target: E1E2 complex (H77) with E1 mutation L221A (HCV genotype 1a, isolate H77, UniProt P27958 192-383; P27958 384-746)
[14] = molecular target: E1E2 complex (H77) with E1 mutation N209A (HCV genotype 1a, isolate H77, UniProt P27958 192-383; P27958 384-746)
[15] = molecular target: E1E2 complex (H77) with E1 mutation N305A/N325A (HCV genotype 1a, isolate H77, UniProt P27958 192-383; P27958 384-746)
[16] = molecular target: E1E2 complex (H77) with E1 mutation S294A (HCV genotype 1a, isolate H77, UniProt P27958 192-383; P27958 384-746)
[17] = molecular target: E1E2 complex (H77) with E1 mutation F291A (HCV genotype 1a, isolate H77, UniProt P27958 192-383; P27958 384-746)
[18] = molecular target: E1E2 complex (H77) with E1 mutation N325A (HCV genotype 1a, isolate H77, UniProt P27958 192-383; P27958 384-746)
[19] = molecular target: E1E2 complex (H77) with E1 mutation N196A (HCV genotype 1a, isolate H77, UniProt P27958 192-383; P27958 384-746)
[20] = molecular target: E1E2 complex (H77) with E1 mutation P295A (HCV genotype 1a, isolate H77, UniProt P27958 192-383; P27958 384-746)
[21] = molecular target: E1E2 complex (H77) with E1 mutation V194A (HCV genotype 1a, isolate H77, UniProt P27958 192-383; P27958 384-746)
[22] = molecular target: E1E2 complex (H77) with E1 mutation S198A (HCV genotype 1a, isolate H77, UniProt P27958 192-383; P27958 384-746)

B1: N4 IgG (antibody, V domains shown)
VH: VQLLEQSGPEVKKPGDSLRISCKMSGDSLVTTWIGWVRQKPGQGLEWMGIINPGDSSTNIYPGDSATRYGPSFQGQVTISIDKSTSTAYLQWNNVKASDTGIYYCARHVPVPISGTFLWREREMHDFGYFDDWGQGTLVIVSS
VL: ELTLTQSPGTLSLSPGERATLSCRASQSVSNNYLAWYQQKPGQAPRLLIYGASSRATGIPDRFSGSGSGTGFTLIISRLEPEDFAVYYCQQYGSSSITFGQGTRLEIKR
notes: also called IgG N4
Binding relative to wt (%) [1]: 24% | Binding relative to wt (%) [2]: 98% | Binding relative to wt (%) [3]: 83% | Binding relative to wt (%) [4]: 138% | Binding relative to wt (%) [5]: 122% | Binding relative to wt (%) [6]: 79% | Binding relative to wt (%) [7]: 94% | Binding relative to wt (%) [8]: 89% | Binding relative to wt (%) [9]: 54% | Binding relative to wt (%) [10]: 119% | Binding relative to wt (%) [11]: 92% | Binding relative to wt (%) [12]: 55% | Binding relative to wt (%) [13]: 100% | Binding relative to wt (%) [14]: 117% | Binding relative to wt (%) [15]: 74% | Binding relative to wt (%) [16]: 71% | Binding relative to wt (%) [17]: 131% | Binding relative to wt (%) [18]: 150% | Binding relative to wt (%) [19]: 52% | Binding relative to wt (%) [20]: 82% | Binding relative to wt (%) [21]: 109% | Binding relative to wt (%) [22]: 78%
